Reference: publication PMC6969036 (Nature Communications, 2020)

Legend:
[1] = target: Syt I (synaptotagmin I) expressed in 293T cells (UniProt P46096); experiment: cell-based or functional assay
[2] = target: T1, GST-Syt I-C2B (C2B domain of synaptotagmin I fused to GST) (Mus musculus (assumed), UniProt P46096); experiment: ELISA; purified STAND-A36 on the indicated GST-fused proteins (GST-C2A, GST-C2B, GST); absorbance, n = 3; conditions: both partners purified
T1 construct: synaptotagmin I, C2B domain; also called GST-C2B; source: purified

[3] = target: T2, GST-Syt I-C2A (C2A domain of synaptotagmin I fused to glutathione S-transferase) (Mus musculus (assumed), UniProt P46096); experiment: ELISA; GST-Syt I-C2A (0.25 pmol) coated on wells in PBS, 16 h 24 °C; blocked with 5% skim milk in PBS with 0.1% Tween 20; purified scFv (0.22-36 nM STAND-A36, 1.17-1800 nM scFv-T7-A36, 3.77-601 nM scFv-GFPA36) 2 h at 24 °C; detected with anti-Flag or anti-His; binding to GST wells subtracted; Kd from Hill-Langmuir fit; conditions: both partners purified
T2 construct: synaptotagmin I, C2A domain; its full-length Syt vectors are mouse; also called GST-C2A; source: purified

Syt I (synaptotagmin I) expressed in 293T cells, sequence (P46096 whole entry, the tested form may be a part): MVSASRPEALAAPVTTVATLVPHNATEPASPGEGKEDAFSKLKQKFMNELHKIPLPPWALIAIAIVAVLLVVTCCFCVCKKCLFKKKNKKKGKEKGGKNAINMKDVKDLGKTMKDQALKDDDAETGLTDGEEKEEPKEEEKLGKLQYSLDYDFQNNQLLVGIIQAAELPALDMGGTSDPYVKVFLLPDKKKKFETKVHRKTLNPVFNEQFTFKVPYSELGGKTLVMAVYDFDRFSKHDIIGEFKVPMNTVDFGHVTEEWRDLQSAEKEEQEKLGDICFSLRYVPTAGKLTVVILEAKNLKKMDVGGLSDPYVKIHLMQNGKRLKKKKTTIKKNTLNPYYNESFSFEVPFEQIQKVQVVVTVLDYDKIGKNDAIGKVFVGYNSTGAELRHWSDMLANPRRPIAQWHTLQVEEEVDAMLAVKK
T1 sequence (P46096 whole entry, looked up, the tested form may be a part): as the sequence (P46096 whole entry, the tested form may be a part) above

Binder	basal dopamine release in the striatum of mice expressing STAND-A36 (microdialysis), inhibition relative to mice expressing STAND-M4 [1] [%]	high potassium (60 mM)-induced dopamine release in cultured dopamine neurons infected with AAV1-STAND-A36, relative to STAND-M4 [1] [%]	binding result [2]	Kd [3] [nM]
STAND-A36 (s3Flag-scFv-A36-HA) expressed in 293T cells (scFv, V domains shown) VH: QVQLQQSGAELVRPGALVKLSCKASGFNIEDYYLHWVKQRPAQGLEWIGGIDPENGIAIYDSKFQGKASITADTSSNTAYLQLSSLTSEDTAVYYCATSEDSFDVWGQGTTVTVS VL: DIELTQSPATMAASPGEKITITCSASSSISSNYLHWYQQKPGFSPKLLIYRTSNLASGVPARFSGSGSGTSYSLTIGTMEAEDVATYYCQQGSSIPLTFGAGTKLEIK	55.3	79.3	–	–
STAND-A36 (s3Flag-scFv-A36-HA), purified from E. coli (scFv, V domains shown, scFv-A36: VH-(Gly4-Ser)3 linker-VL, from the spleen of Balb/c mice immunised with GST-Syt II-C2A (phage display); s3Flag-scFv-HA constructs were synthesised and codon-optimised (Genscript); also called s3Flag-A36-HA; purified STAND-A36) VH: QVQLQQSGAELVRPGALVKLSCKASGFNIEDYYLHWVKQRPAQGLEWIGGIDPENGIAIYDSKFQGKASITADTSSNTAYLQLSSLTSEDTAVYYCATSEDSFDVWGQGTTVTVS VL: DIELTQSPATMAASPGEKITITCSASSSISSNYLHWYQQKPGFSPKLLIYRTSNLASGVPARFSGSGSGTSYSLTIGTMEAEDVATYYCQQGSSIPLTFGAGTKLEIK	–	–	no binding	12.2
scFv-T7-A36 (scFv-A36 fused with T7- and His-tags), purified from E. coli (scFv, V domains shown, scFv-A36: VH-(Gly4-Ser)3 linker-VL; source: E. coli, purified under non-denaturing conditions (Probond nickel-chelating resin); not shown: T7, N-terminal, kept; His6, C-terminal, kept) VH: QVQLQQSGAELVRPGALVKLSCKASGFNIEDYYLHWVKQRPAQGLEWIGGIDPENGIAIYDSKFQGKASITADTSSNTAYLQLSSLTSEDTAVYYCATSEDSFDVWGQGTTVTVS VL: DIELTQSPATMAASPGEKITITCSASSSISSNYLHWYQQKPGFSPKLLIYRTSNLASGVPARFSGSGSGTSYSLTIGTMEAEDVATYYCQQGSSIPLTFGAGTKLEIK	–	–	–	341
